Patent US20190161539A1

Assays:
[1] = target: β-amyloid peptide (1-42) conjugated to BSA; assay: competition ELISA on coated Aβ1-42-BSA against biotinylated Mu266, first set of three experiments
[2] = target: β-amyloid peptide (1-42) conjugated to BSA; assay: competition ELISA on coated Aβ1-42-BSA against biotinylated Mu266, second set of three experiments
Aβ 1-40 peptide (human) = assay: KinExA 3000, equilibrium in solution with human soluble Abeta (1-40), 37° C.

## Mouse monoclonal antibody 266 (Mu266)
[1]
  IC50: 4.7 µg/mL
[2]
  IC50: 3.87 µg/mL

## m266-Fab
Aβ 1-40 peptide (human)
  Kd: 0.24 nM
